Assay results: article PMC8458281, “Computational modeling and experimental validation of the EPI-X4/CXCR4 complex allows rational design of small peptide antagonists” (Communications Biology, 2021)

B1: EPI-X4 JM#21 [human] / CXCR4 wt (transfected 293T cells) [human] (parent complex)
chain 1: ILRWSRKLPCVS
chain 2: MEGISIYTSDNYTEEMGSGDYDSMKEPCFREENANFNKIFLPTIYSIIFLTGIVGNGLVILVMGYQKKLRSMTDKYRLHLSVADLLFVITLPFWAVDAVANWYFGNFLCKAVHVIYTVNLYSSVLILAFISLDRYLAIVHATNSQRPRKLLAEKVVYVGVWIPALLLTIPDFIFANVSEADDRYICDRFYPNDLWVVVFQFQHIMVGLILPGIVILSCYCIIISKLSHSKGHQKRKALKTTVILILAFFACWLPYYIGISIDSFILLEIIKQGCEFENTVHKWISITEALAFFHCCLNPILYAFLGAKFKTSAQHALTSVSRGSSLKILSKGKRGGHSSVSTESESSSFHSS
B2: WSC02 [human] / CXCR4 wt (transfected 293T cells) [human] (parent complex)
chain 1: IVRWSKKVPCVS
chain 2: B1 chain 2

Variants of: B1
Experiment: 12G5 antibody competition assay, flow cytometry on transfected 293T cells; 2 h incubation; IC50 set to 100 µM if above the maximally used concentration; parent: 620 nM; read off a plot

Row | Variant | IC50
1 | chain 2 MEGISIYTSDNYTEEMGSGDYDSMKEPCFREENANFNKIFLPTIYSIIFLTGIVGNGLVILVMGYQKKLRSMTDKYRLHLSVADLLFVITLPFWAVDAVANWYFGNFLCKAAHVIYTVNLYSSVLILAFISLDRYLAIVHATNSQRPRKLLAEKVVYVGVWIPALLLTIPDFIFANVSEADDRYICDRFYPNDLWVVVFQFQHIMVGLILPGIVILSCYCIIISKLSHSKGHQKRKALKTTVILILAFFACWLPYYIGISIDSFILLEIIKQGCEFENTVHKWISITEALAFFHCCLNPILYAFLGAKFKTSAQHALTSVSRGSSLKILSKGKRGGHSSVSTESESSSFHSS [chain 2 V112A] | ~3.4 µM
2 | chain 2 MEGISIYTSDNYTEEMGSGDYDSMKEPCFREENANFNKIFLPTIYSIIFLTGIVGNGLVILVMGYQKKLRSMTDKYRLHLSVADLLFVITLPFWAVDAVANWYFGNFLCKALHVIYTVNLYSSVLILAFISLDRYLAIVHATNSQRPRKLLAEKVVYVGVWIPALLLTIPDFIFANVSEADDRYICDRFYPNDLWVVVFQFQHIMVGLILPGIVILSCYCIIISKLSHSKGHQKRKALKTTVILILAFFACWLPYYIGISIDSFILLEIIKQGCEFENTVHKWISITEALAFFHCCLNPILYAFLGAKFKTSAQHALTSVSRGSSLKILSKGKRGGHSSVSTESESSSFHSS [chain 2 V112L] | ~0.4 µM
3 | chain 2 MEGISIYTSDNYTEEMGSGDYDSMKEPCFREENANFNKIFLPTIYSIIFLTGIVGNGLVILVMGYQKKLRSMTDKYRLHLSVADLLFVITLPFWAVQAVANWYFGNFLCKAVHVIYTVNLYSSVLILAFISLDRYLAIVHATNSQRPRKLLAEKVVYVGVWIPALLLTIPDFIFANVSEADDRYICDRFYPNDLWVVVFQFQHIMVGLILPGIVILSCYCIIISKLSHSKGHQKRKALKTTVILILAFFACWLPYYIGISIDSFILLEIIKQGCEFENTVHKWISITEALAFFHCCLNPILYAFLGAKFKTSAQHALTSVSRGSSLKILSKGKRGGHSSVSTESESSSFHSS [chain 2 D97Q] | ~8 µM
4 | chain 2 MEGISIYTSDNYTEEMGSGDYDSMKEPCFREENANFNKIFLPTIYSIIFLTGIVGNGLVILVMGYQKKLRSMTDKYRLHLSVADLLFVITLPFWAVEAVANWYFGNFLCKAVHVIYTVNLYSSVLILAFISLDRYLAIVHATNSQRPRKLLAEKVVYVGVWIPALLLTIPDFIFANVSEADDRYICDRFYPNDLWVVVFQFQHIMVGLILPGIVILSCYCIIISKLSHSKGHQKRKALKTTVILILAFFACWLPYYIGISIDSFILLEIIKQGCEFENTVHKWISITEALAFFHCCLNPILYAFLGAKFKTSAQHALTSVSRGSSLKILSKGKRGGHSSVSTESESSSFHSS [chain 2 D97E] | ~1.8 µM
5 | chain 2 MEGISIYTSDNYTEEMGSGDYDSMKEPCFREENANFNKIFLPTIYSIIFLTGIVGNGLVILVMGYQKKLRSMTDKYRLHLSVADLLFVITLPFWAVSAVANWYFGNFLCKAVHVIYTVNLYSSVLILAFISLDRYLAIVHATNSQRPRKLLAEKVVYVGVWIPALLLTIPDFIFANVSEADDRYICDRFYPNDLWVVVFQFQHIMVGLILPGIVILSCYCIIISKLSHSKGHQKRKALKTTVILILAFFACWLPYYIGISIDSFILLEIIKQGCEFENTVHKWISITEALAFFHCCLNPILYAFLGAKFKTSAQHALTSVSRGSSLKILSKGKRGGHSSVSTESESSSFHSS [chain 2 D97S] | ~5.4 µM
6 | chain 2 MEGISIYTSDNYTEEMGSGDYDSMKEPCFREENANFNKIFLPTIYSIIFLTGIVGNGLVILVMGYQKKLRSMTDKYRLHLSVADLLFVITLPFWAVTAVANWYFGNFLCKAVHVIYTVNLYSSVLILAFISLDRYLAIVHATNSQRPRKLLAEKVVYVGVWIPALLLTIPDFIFANVSEADDRYICDRFYPNDLWVVVFQFQHIMVGLILPGIVILSCYCIIISKLSHSKGHQKRKALKTTVILILAFFACWLPYYIGISIDSFILLEIIKQGCEFENTVHKWISITEALAFFHCCLNPILYAFLGAKFKTSAQHALTSVSRGSSLKILSKGKRGGHSSVSTESESSSFHSS [chain 2 D97T] | ~3.7 µM
7 | chain 2 MEGISIYTSDNYTEEMGSGDYDSMKEPCFREENANFNKIFLPTIYSIIFLTGIVGNGLVILVMGYQKKLRSMTDKYRLHLSVADLLFVITLPFWAVDAVANWYFGNFLCKAVHVIYTVNLYSSVLILAFISLDRYLAIVHATNSQRPRKLLAEKVVYVGVWIPALLLTIPDFIFANVSEADDRYICDRFYPNDLWVVVFQFQHIMVGLILPGIVILSCYCIIISKLSHSKGHQKRKALKTTVILILAFFACWLPYYIGISIDSFILLEIIKQGCEFANTVHKWISITEALAFFHCCLNPILYAFLGAKFKTSAQHALTSVSRGSSLKILSKGKRGGHSSVSTESESSSFHSS [chain 2 E277A] | ~0.27 µM
8 | chain 2 MEGISIYTSDNYTEEMGSGDYDSMKEPCFREENANFNKIFAPTIYSIIFLTGIVGNGLVILVMGYQKKLRSMTDKYRLHLSVADLLFVITLPFWAVDAVANWYFGNFLCKAAHVIYTVNLYSSVLILAFISLDRYLAIVHATNSQRPRKLLAEKVVYVGVWIPALLLTIPDFIFANVSEADDRYICDRFYPNDLWVVVFQFQHIMVGLILPGIVILSCYCIIISKLSHSKGHQKRKALKTTVILILAFFACWLPYYIGISIDSFILLEIIKQGCEFENTVHKWISITEALAFFHCCLNPILYAFLGAKFKTSAQHALTSVSRGSSLKILSKGKRGGHSSVSTESESSSFHSS [chain 2 L41A, chain 2 V112A] | ~0.63 µM
9 | chain 2 MEGISIYTSDNYTEEMGSGDYDSMKEPCFREENANFNKIFLPTIYSIIFLTGIVGNGLVILVMGYQKKLRSMTDKYRLHLSVADLLFVITLPFWAVEAVANWYFGNFLCKAAHVIYTVNLYSSVLILAFISLDRYLAIVHATNSQRPRKLLAEKVVYVGVWIPALLLTIPDFIFANVSEADDRYICDRFYPNDLWVVVFQFQHIMVGLILPGIVILSCYCIIISKLSHSKGHQKRKALKTTVILILAFFACWLPYYIGISIDSFILLEIIKQGCEFENTVHKWISITEALAFFHCCLNPILYAFLGAKFKTSAQHALTSVSRGSSLKILSKGKRGGHSSVSTESESSSFHSS [chain 2 D97E, chain 2 V112A] | ~0.46 µM
10 | chain 2 MEGISIYTSDNYTEEMGSGDYDSMKEPCFREENANFNKIFLPTIYSIIFLTGIVGNGLVILVMGYQKKLRSMTDKYRLHLSVADLLFVITLPFWAVEAVANWYFGNFLCKALHVIYTVNLYSSVLILAFISLDRYLAIVHATNSQRPRKLLAEKVVYVGVWIPALLLTIPDFIFANVSEADDRYICDRFYPNDLWVVVFQFQHIMVGLILPGIVILSCYCIIISKLSHSKGHQKRKALKTTVILILAFFACWLPYYIGISIDSFILLEIIKQGCEFENTVHKWISITEALAFFHCCLNPILYAFLGAKFKTSAQHALTSVSRGSSLKILSKGKRGGHSSVSTESESSSFHSS [chain 2 D97E, chain 2 V112L] | ~0.38 µM
11 | chain 2 MEGISIYTSDNYTEEMGSGDYDSMKEPCFREENANFNKIFLPTIYSIIFLTGIVGNGLVILVMGYQKKLRSMTDKYRLHLSVADLLFVITLPFWAVDAVANWYFGNFLCKAVHVIYTVNLYSSVLILAFISLDRYLAIVHATNSQRPRKLLAEKVVYVGVWIPALLLTIPDFIFANVSEADDRYICDRFYPNDLWVVVFQFQHIMVGLILPGIVILSCYCIIISKLSHSKGHQKRKALKTTVILILAFFACWLPYYIGISIASFILLEIIKQGCEFENTVHKWISITEALAFFHCCLNPILYAFLGAKFKTSAQHALTSVSRGSSLKILSKGKRGGHSSVSTESESSSFHSS [chain 2 D262A] | ~0.22 µM
12 | chain 2 MEGISIYTSDNYTEEMGSGDYDSMKEPCFREENANFNKIFAPTIYSIIFLTGIVGNGLVILVMGYQKKLRSMTDKYRLHLSVADLLFVITLPFWAVDAVANWYFGNFLCKAVHVIYTVNLYSSVLILAFISLDRYLAIVHATNSQRPRKLLAEKVVYVGVWIPALLLTIPDFIFANVSEADDRYICDRFYPNDLWVVVFQFQHIMVGLILPGIVILSCYCIIISKLSHSKGHQKRKALKTTVILILAFFACWLPYYIGISIDSFILLEIIKQGCEFENTVHKWISITEALAFFHCCLNPILYAFLGAKFKTSAQHALTSVSRGSSLKILSKGKRGGHSSVSTESESSSFHSS [chain 2 L41A] | ~0.65 µM

Variants of: B2
Experiment: 12G5 antibody competition assay, flow cytometry on transfected 293T cells; 2 h incubation; IC50 set to 1000 µM if above the maximally used concentration; parent: 1e+03 nM; read off a plot

Row | Variant | IC50
13 | chain 2 MEGISIYTSDNYTEEMGSGDYDSMKEPCFREENANFNKIFLPTIYSIIFLTGIVGNGLVILVMGYQKKLRSMTDKYRLHLSVADLLFVITLPFWAVTAVANWYFGNFLCKAVHVIYTVNLYSSVLILAFISLDRYLAIVHATNSQRPRKLLAEKVVYVGVWIPALLLTIPDFIFANVSEADDRYICDRFYPNDLWVVVFQFQHIMVGLILPGIVILSCYCIIISKLSHSKGHQKRKALKTTVILILAFFACWLPYYIGISIDSFILLEIIKQGCEFENTVHKWISITEALAFFHCCLNPILYAFLGAKFKTSAQHALTSVSRGSSLKILSKGKRGGHSSVSTESESSSFHSS [chain 2 D97T] | ~30 µM
14 | chain 2 MEGISIYTSDNYTEEMGSGDYDSMKEPCFREENANFNKIFLPTIYSIIFLTGIVGNGLVILVMGYQKKLRSMTDKYRLHLSVADLLFVITLPFWAVDAVANWYFGNFLCKAVHVIYTVNLYSSVLILAFISLDRYLAIVHATNSQRPRKLLAEKVVYVGVWIPALLLTIPDFIFANVSEADDRYICDRFYPNDLWVVVFQFQHIMVGLILPGIVILSCYCIIISKLSHSKGHQKRKALKTTVILILAFFACWLPYYIGISIASFILLEIIKQGCEFENTVHKWISITEALAFFHCCLNPILYAFLGAKFKTSAQHALTSVSRGSSLKILSKGKRGGHSSVSTESESSSFHSS [chain 2 D262A] | ~0.45 µM
15 | chain 2 MEGISIYTSDNYTEEMGSGDYDSMKEPCFREENANFNKIFLPTIYSIIFLTGIVGNGLVILVMGYQKKLRSMTDKYRLHLSVADLLFVITLPFWAVEAVANWYFGNFLCKALHVIYTVNLYSSVLILAFISLDRYLAIVHATNSQRPRKLLAEKVVYVGVWIPALLLTIPDFIFANVSEADDRYICDRFYPNDLWVVVFQFQHIMVGLILPGIVILSCYCIIISKLSHSKGHQKRKALKTTVILILAFFACWLPYYIGISIDSFILLEIIKQGCEFENTVHKWISITEALAFFHCCLNPILYAFLGAKFKTSAQHALTSVSRGSSLKILSKGKRGGHSSVSTESESSSFHSS [chain 2 D97E, chain 2 V112L] | ~1.7 µM
16 | chain 2 MEGISIYTSDNYTEEMGSGDYDSMKEPCFREENANFNKIFLPTIYSIIFLTGIVGNGLVILVMGYQKKLRSMTDKYRLHLSVADLLFVITLPFWAVEAVANWYFGNFLCKAAHVIYTVNLYSSVLILAFISLDRYLAIVHATNSQRPRKLLAEKVVYVGVWIPALLLTIPDFIFANVSEADDRYICDRFYPNDLWVVVFQFQHIMVGLILPGIVILSCYCIIISKLSHSKGHQKRKALKTTVILILAFFACWLPYYIGISIDSFILLEIIKQGCEFENTVHKWISITEALAFFHCCLNPILYAFLGAKFKTSAQHALTSVSRGSSLKILSKGKRGGHSSVSTESESSSFHSS [chain 2 D97E, chain 2 V112A] | ~1.7 µM
